Data reported in patent US20230340089A1 (CITY OF HOPE, published 2023).

T1: Structural Maintenance of Chromosome-1A (SMC1A) (human, UniProt Q14683 1-1233)
T1 construct: whole, on cells; Endogenous antigen; It is on live or fixed cells in flow cytometry, LI-COR cell surface assay, ICC and immunogold EM, and in cell lysates in Western blot and immunoprecipitation; No recombinant SMC1A was used; also called SMC1A antigen; surface SMC1
T1 sequence (looked up): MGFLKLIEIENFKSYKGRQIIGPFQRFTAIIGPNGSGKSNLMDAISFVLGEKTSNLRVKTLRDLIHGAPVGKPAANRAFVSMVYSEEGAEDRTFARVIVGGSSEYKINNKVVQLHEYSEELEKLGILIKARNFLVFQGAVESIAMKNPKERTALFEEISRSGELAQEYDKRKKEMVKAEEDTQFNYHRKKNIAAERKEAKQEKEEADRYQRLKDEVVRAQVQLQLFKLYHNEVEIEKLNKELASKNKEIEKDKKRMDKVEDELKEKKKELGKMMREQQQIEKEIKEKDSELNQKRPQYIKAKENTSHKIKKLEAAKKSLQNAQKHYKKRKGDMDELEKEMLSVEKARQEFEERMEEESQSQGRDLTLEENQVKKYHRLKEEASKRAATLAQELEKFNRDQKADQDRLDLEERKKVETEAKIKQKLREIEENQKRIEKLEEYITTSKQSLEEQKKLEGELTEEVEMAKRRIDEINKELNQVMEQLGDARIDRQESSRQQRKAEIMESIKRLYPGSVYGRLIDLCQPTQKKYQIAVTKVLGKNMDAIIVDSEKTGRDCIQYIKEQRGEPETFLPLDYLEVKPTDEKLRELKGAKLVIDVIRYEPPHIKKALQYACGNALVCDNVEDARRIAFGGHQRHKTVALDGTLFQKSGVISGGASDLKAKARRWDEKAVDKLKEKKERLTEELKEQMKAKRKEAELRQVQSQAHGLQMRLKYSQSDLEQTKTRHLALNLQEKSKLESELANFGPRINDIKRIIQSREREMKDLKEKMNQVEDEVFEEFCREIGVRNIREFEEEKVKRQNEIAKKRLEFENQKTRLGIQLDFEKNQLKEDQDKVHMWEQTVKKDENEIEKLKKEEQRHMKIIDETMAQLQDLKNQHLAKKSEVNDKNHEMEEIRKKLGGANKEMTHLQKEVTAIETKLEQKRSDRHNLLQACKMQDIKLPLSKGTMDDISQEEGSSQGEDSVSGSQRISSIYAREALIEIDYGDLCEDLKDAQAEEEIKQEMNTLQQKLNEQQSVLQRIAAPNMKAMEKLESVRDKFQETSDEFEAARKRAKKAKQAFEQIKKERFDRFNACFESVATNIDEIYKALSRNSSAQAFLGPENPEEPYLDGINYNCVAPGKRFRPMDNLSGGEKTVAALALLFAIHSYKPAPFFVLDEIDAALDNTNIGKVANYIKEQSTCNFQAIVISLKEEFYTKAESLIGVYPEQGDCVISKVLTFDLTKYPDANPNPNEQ


Assays:
[1] = target: T1, Structural Maintenance of Chromosome-1A …; experiment: LI-COR based cell surface assay on tumor cells
[2] = target: T1, Structural Maintenance of Chromosome-1A …; experiment: immunoprecipitation, then Western blot with the Bethyl anti-human SMC1A polyclonal antibody
[3] = target: T1, Structural Maintenance of Chromosome-1A …; experiment: Western blot of HCT116, HT29 and MDA-MB-231 lysates, 1 ug/ml
Procedure: For each Westem blot, the cell lysates used as samples were from HCT116 cells (1), HT29 cells (2) and MDA-MB-231 cells (3). […] The secondary antibody used was an anti-human-HRP (dilution 1:3000) and incubated for 1 hour at room temperature with the overnight incubations.

Row | Binder | binding result [1] | binding result [2] | other results
1 | SMC1A1 (antibody, V domains shown, also called SMC1A-ALPHA1) VH: VTLKESGPGILQPSQTLSLTCSFSGFSLSTSGMGVGWIRQPSGKGLEWLAHIWWDDDQYSNTALRSGLTISKDTSKNQVFLKIASVDTSDTATYYCARVTTDAVDYWGQGTSVTVSS VL: QIVLTQSPAIMSISPGERVTMTCSASSGLTYMYWYQQKPGSSPRLLIYDTSNLASGVPVRFSGSGSGTSYSLTISRMEAEDAATYYCQQWKSFPPTFGGGTKLEIKR | binds |  | 
2 | SMC1-Beta (antibody, V domains shown) VH: EVKLQESGPELVKSGASVKIPCKASGYTFTDFNIEWVKQNRGKSLEWIGDINPSNGETIYNKKFKGKATLTVDKSSTTAFMELRSLTSEDTAVYYCARDHYYGYDYDAMDYWGQGTSVTVSS VL: QIVLTQSPAIMSASPGEKVTMTCSASSSIGYMHWYQQKPGTSPKRWIYDRSKLASGVPARFSGSGSGTSFSLTISSMEAEDAATYYCHQRSRYPYTFGGGTKLEIKR | binds |  | 
3 | SMC1A4-chimeric antibody (antibody, V domains shown, Chimeric IgG detected with anti-human secondary antibodies; also called chimeric SMC1A4; SMC1A4 chimeric monoclonal antibody) VH: VQLQQSGAELVKPGASVKLSCTASGFNIKDPYMHWVKQRPEQGLEWIGWITPANGNTKYDPKFQAKATITADTYSNTAYLQFSSLTSEDTAVYFCARSGDAYYWAWFAYWGQGTLVTVSA VL: DVLMTQTPLSLTVSLGDQASISCRSSQSIVHSNGNTYLEWYLQKPGQSPKLLIYKVSNRFSGVSDRFSGSGSGTDFTLKISRVEAEDLGVYYCFQGPLYTFGGGTKLEIKR |  | binds | 
4 | chimeric SMC1A1 mAb (antibody, V domains shown, also called SMC1A-ALPHA1) VH: VTLKESGPGILQPSQTLSLTCSFSGFSLSTSGMGVGWIRQPSGKGLEWLAHIWWDDDQYSNTALRSGLTISKDTSKNQVFLKIASVDTSDTATYYCARVTTDAVDYWGQGTSVTVSS VL: QIVLTQSPAIMSISPGERVTMTCSASSGLTYMYWYQQKPGSSPRLLIYDTSNLASGVPVRFSGSGSGTSYSLTISRMEAEDAATYYCQQWKSFPPTFGGGTKLEIKR |  | binds | 
5 | meditope-enabled SMC1A4 (antibody, human IgG1, kappa, V domains shown, It was detected with anti-human secondary antibodies; also called SMC1A4-me; SMC1A4-ME) VH: EVQLVESGGGLVQPGGSLRLSCAASGFNIKDPYMHWVRQSPGKGLEWIGWITPANGNTKYADSVKGRATISADTSKNTAYLQMNSLRAEDTAIYFCARSGDAYYWAWFAYWGQGTLVTVSS VL: DVQMTQSPILLSASVGDRVTITCRSSQSIVHSNGNTYLEWYQQRTNGSPRLLIYKVSNRFSGVPSRFSGSGSGTDFTLTISSLQPEDIADYYCFQGPLYTFGAGTKVEIKR |  |  | binding result [3]: binds
